Results: publication PMC4851618, “Structural dynamics of a methionine γ-lyase for calicheamicin biosynthesis: Rotation of the conserved tyrosine stacking with pyridoxal phosphate” (Structural Dynamics, 2016)

Target: the molecule itself
Test: crystal structure; sitting drop, 11 mg/ml protein with 1 mM PLP, 12% w/v PEG 20000, 0.1 M MES pH 6.5, 289 K; SAD, 2.10 Å, space group I222; quaternary assembly calculated by PISA

B1: CalE6, PLP-dependent methionine γ-lyase from Micromonospora echinospora (D7G variant, selenomethionine labeled) (enzyme, UniProt Q8KNG3 1-381, looked up)
chain: MSGMRFGTRLVHGGRRPSAGTGDVVPPIHVSTTYERRAQDEPRYFYGRGENPTREELEECLAGLERAPFATVFSSGQAAAATLLSLVRPGQCVVSTDDVYAGTDGLFDLAARQGVRVRYADLTTPEGIAAALAEPDLALVWIETPTNPLLTVVDVAEVSRRAHERGARVVVDNTFASPVLQQPLALGADVSLYSTTKSIAGHADVLGGALVYRDADLHAAVRAYRTTAGNVPGALDCFLVRRGLHTLSLRVHRQVATARVLVERLRASPVVGAVHYPGLPEHPQHAVVKAQMSAPGAIVSFDYLGGPAERLLDRFTLFTCGVSLGGVHSLVECPALMTHRPLSAEARARRGIGESLIRLSVGIEDPQDLAEDLSRALAGGT
modifications: selenomethionine in place of methionine; Lys 197 bound covalently to PLP (Schiff base, residue LLP 197)
notes: The printed fusion scheme (ENLYFQ/SNA-TARGET) leaves SNA before the protein after TEV cleavage; The forward primer begins the target with GTG (AGC GGT ATG CGC TTC GAC follow), so the first residue behind SNA may be Val, not Met; Crystallised with 1 mM PLP; also called CalE6-MES complex; CalE6 holoenzyme; source: E. coli BL21(DE3), selenomethionine labeled, purified (Ni-NTA, TEV cleavage, …)
In the case of B1, the “stoichiometry N” value is reported as 4.
